Here are results for 4 molecules from patent publication US20110263454A1, “Methods of Identifying Functional Characteristics of Promoters, Transcription Modifying Proteins and Transcription Modulating Agents” (Salk Institute for Biological Studies, priority 2008, published 2011).

The test system of one experiment is hIRF7 promoter. The experiment can be described thus: NHR-promoter luciferase screen, hIRF7 promoter. The class given is cell-based, human. The note with it: for Normalized Luc. act., normalized to control / Luc. act., normalized to lacZ: IRF7 promoter reporter; for Normalized Luc. act., normalized to control: HR without or with its ligand, relative to control; for Luc. act., normalized to lacZ: hormone receptor (HR) without or with its ligand; for hIRF7 promoter reporter activity: transcription factor +/- ligand, control = 1.00. The method in brief: (§1)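 CV-1 cells were co-transfected with 50 ng NHR (homodimer or NHR/RXR heterodimer), 100 ng promoter-luciferase construct and 50 ng LacZ. Luciferase was normalized to LacZ and to a no-NHR/no-ligand control.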

For a further experiment, the system named is hCYP3A4 promoter. The experiment can be described thus: NHR-promoter luciferase screen, hCYP3A4 promoter. The experiment is classed as cell-based, human. The note with it: for Luc. act., normalized to lacZ / Normalized Luc. act., normalized to control: CYP3A4 promoter, HR/ligand component; for hCYP3A4 promoter reporter activity: transcription factor +/- ligand, control = 1.00. The method in brief:
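Luciferase reporter read-out after co-expression in CV-1 cells of V5H6-tagged receptor (alone or with RXR), the promoter construct and LacZ. Values are luciferase/LacZ relative to a control lacking NHR or ligand; orphan receptors tested ligand-free.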

The subject of another experiment is mUCP2 promoter. The experiment can be described thus: NHR-promoter luciferase screen, mUCP2 promoter. The experiment is classed as cell-based, mouse. The note with it: for Luc. act., normalized to lacZ / Normalized Luc. act., normalized to control: mUCP2 promoter reporter, co-transfected HR, with or without its ligand; for Normalized Luc. act., normalized to control: relative to control; for luciferase activity normalized to lacZ activity and to a control, mUCP2: mUCP2 promoter-luciferase, CV-1 cells, NHR +/- ligand, control = 1.00. In short, it runs like this:
as §1

A further experiment deals with mLeptin promoter. The experiment can be described thus: NHR-promoter luciferase screen, mLeptin promoter. The class given is cell-based, mouse. To be noted: for Luc. act., normalized to lacZ / Normalized Luc. act., normalized to control: Table 7, mLeptin; for Results of assays of transcription factor (+/- ligand) with mLeptin: Table 6d, luciferase activity relative to control (control = 1.00). The method in brief:
as §1

The next experiment deals with mPOMC promoter. The experiment can be described thus: NHR-promoter luciferase screen, mPOMC promoter. The experiment is classed as cell-based, mouse. The note with it: for Results of assays of transcription factor (+/- ligand) with mPOMC: Table 6d, luciferase activity relative to control (control = 1.00); for Luc. act., normalized to lacZ / Normalized Luc. act., normalized to control: mPOMC promoter, HR component with or without ligand; for Normalized Luc. act., normalized to control: relative to control. In short, it runs like this: as §1

The subject of another experiment is mCAR promoter. The experiment is described as follows: NHR-promoter luciferase screen, mCAR promoter. To be noted: for luciferase activity normalized to lacZ activity and to a control, mCAR: mCAR promoter-luciferase, CV-1 cells, NHR +/- ligand, control = 1.00; for Luc. act., normalized to lacZ / Normalized Luc. act., normalized to control: mCAR promoter, HR/ligand component. The experiment is classed as cell-based, mouse. In short, it runs like this:
as §1

B1: CTF2: COUP-TF2 (NR2F2), cDNA driver (protein, UniProt P24468 1-414, looked up)
COUP transcription factor 2: MAMVVSTWRDPQDEVPGSQGSQASQAPPVPGPPPGAPHTPQTPGQGGPASTPAQTAAGGQGGPGGPGSDKQQQQQHIECVVCGDKSSGKHYGQFTCEGCKSFFKRSVRRNLSYTCRANRNCPIDQHHRNQCQYCRLKKCLKVGMRREAVQRGRMPPTQPTHGQFALTNGDPLNCHSYLSGYISLLLRAEPYPTSRFGSQCMQPNNIMGIENICELAARMLFSAVEWARNIPFFPDLQITDQVALLRLTWSELFVLNAAQCSMPLHVAPLLAAAGLHASPMSADRVVAFMDHIRIFQEQVEKLKALHVDSAEYSCLKAIVLFTSDACGLSDVAHVESLQEKSQCALEEYVRSQYPNQPTRFGKLLLRLPSLRTVSSSVIEQLFFVRLVGKTPIETLIRDMLLSGSSFNWPYMAIQ
In the case of B1, in the experiment with hIRF7 promoter, the “Normalized Luc. act., normalized to control” value came to 1.0; the “Luc. act., normalized to lacZ” value was 25.6; the “hIRF7 promoter reporter activity” value was determined as 0.97. In addition, in the experiment on hCYP3A4 promoter, the “Luc. act., normalized to lacZ” value is listed as 2.7; the “Normalized Luc. act., normalized to control” value is recorded as 0.6; the “hCYP3A4 promoter reporter activity” value was 0.61. Besides, in the experiment on mUCP2 promoter, the “Luc. act., normalized to lacZ” value was 90.4; the “Normalized Luc. act., normalized to control” value was found to be 0.8; the “luciferase activity normalized to lacZ activity and to a control, mUCP2” value (from here on “luciferase activity normalized … mUCP2”) amounted to 0.82. In addition, in the experiment on mLeptin promoter, the “Luc. act., normalized to lacZ” value is reported as 3.8; the “Normalized Luc. act., normalized to control” value came to 1.3; the “Results of assays of transcription factor (+/- ligand) with mLeptin” value (shortened to “Results of assays … with mLeptin”) is listed as 1.31. For the same molecule, in the experiment with mPOMC promoter, the “Results of assays of transcription factor (+/- ligand) with mPOMC” value (“Results of assays … with mPOMC” below) came to 0.94; the “Luc. act., normalized to lacZ” value is listed as 64.6; the “Normalized Luc. act., normalized to control” value stood at 0.9. For the same molecule, in the experiment with mCAR promoter, the “luciferase activity normalized to lacZ activity and to a control, mCAR” value (“luciferase activity normalized … mCAR” below) was found to be 0.51; the “Luc. act., normalized to lacZ” value is listed as 19.3; the “Normalized Luc. act., normalized to control” value amounted to 0.5.

B2: ERR2: Estrogen Related Receptor β (NR3B2, ERRb), cDNA driver (protein, UniProt O95718 1-433, looked up)
Steroid hormone receptor ERR2: MSSDDRHLGSSCGSFIKTEPSSPSSGIDALSHHSPSGSSDASGGFGLALGTHANGLDSPPMFAGAGLGGTPCRKSYEDCASGIMEDSAIKCEYMLNAIPKRLCLVCGDIASGYHYGVASCEACKAFFKRTIQGNIEYSCPATNECEITKRRRKSCQACRFMKCLKVGMLKEGVRLDRVRGGRQKYKRRLDSESSPYLSLQISPPAKKPLTKIVSYLLVAEPDKLYAMPPPGMPEGDIKALTTLCDLADRELVVIIGWAKHIPGFSSLSLGDQMSLLQSAWMEILILGIVYRSLPYDDKLVYAEDYIMDEEHSRLAGLLELYRAILQLVRRYKKLKVEKEEFVTLKALALANSDSMYIEDLEAVQKLQDLLHEALQDYELSQRHEEPWRTGKLLLTLPLLRQTAAKAVQHFYSVKLQGKVPMHKLFLEMLEAKV
B2: in the experiment with hIRF7 promoter, the “Normalized Luc. act., normalized to control” value was found to be 2.3; the “Luc. act., normalized to lacZ” value was 60.5; the “hIRF7 promoter reporter activity” value is 2.30. Also, in the experiment with hCYP3A4 promoter, the “Luc. act., normalized to lacZ” value is reported as 15.5; the “Normalized Luc. act., normalized to control” value came to 3.5; the “hCYP3A4 promoter reporter activity” value is reported as 3.49. Besides, in the experiment on mUCP2 promoter, the “Luc. act., normalized to lacZ” value was found to be 185.1; the “Normalized Luc. act., normalized to control” value is recorded as 1.7; the “luciferase activity normalized … mUCP2” value stood at 1.68. In the experiment with mLeptin promoter, the “Luc. act., normalized to lacZ” value came out at 9.7; the “Normalized Luc. act., normalized to control” value came out at 3.3; the “Results of assays … with mLeptin” value is recorded as 3.30. Besides, the “luciferase/LacZ, mLeptin (selected results)” value in the experiment with mLeptin promoter (mLeptin promoter-luciferase, NHR +/- ligand, control = 1.0) is reported as 3.3. Besides, in the experiment on mPOMC promoter, the “Results of assays … with mPOMC” value worked out at 1.57; the “Luc. act., normalized to lacZ” value turned out to be 108.6; the “Normalized Luc. act., normalized to control” value amounted to 1.6. In the experiment on mCAR promoter, the “luciferase activity normalized … mCAR” value is listed as 0.99; the “Luc. act., normalized to lacZ” value worked out at 37.8; the “Normalized Luc. act., normalized to control” value is listed as 1.0.

B3: CTF1: COUP-TF1 (NR2F1), cDNA driver (protein, UniProt P10589 1-423, looked up)
COUP transcription factor 1: MAMVVSSWRDPQDDVAGGNPGGPNPAAQAARGGGGGAGEQQQQAGSGAPHTPQTPGQPGAPATPGTAGDKGQGPPGSGQSQQHIECVVCGDKSSGKHYGQFTCEGCKSFFKRSVRRNLTYTCRANRNCPIDQHHRNQCQYCRLKKCLKVGMRREAVQRGRMPPTQPNPGQYALTNGDPLNGHCYLSGYISLLLRAEPYPTSRYGSQCMQPNNIMGIENICELAARLLFSAVEWARNIPFFPDLQITDQVSLLRLTWSELFVLNAAQCSMPLHVAPLLAAAGLHASPMSADRVVAFMDHIRIFQEQVEKLKALHVDSAEYSCLKAIVLFTSDACGLSDAAHIESLQEKSQCALEEYVRSQYPNQPSRFGKLLLRLPSLRTVSSSVIEQLFFVRLVGKTPIETLIRDMLLSGSSFNWPYMSIQCS
With B3, in the experiment on hIRF7 promoter, the “Normalized Luc. act., normalized to control” value is reported as 0.9; the “Luc. act., normalized to lacZ” value was 24.8; the “hIRF7 promoter reporter activity” value was found to be 0.94. In addition, in the experiment with hCYP3A4 promoter, the “Luc. act., normalized to lacZ” value is on record as 2.6; the “Normalized Luc. act., normalized to control” value was determined as 0.6; the “hCYP3A4 promoter reporter activity” value stood at 0.59. For the same molecule, in the experiment with mUCP2 promoter, the “Luc. act., normalized to lacZ” value was found to be 67.1; the “Normalized Luc. act., normalized to control” value is recorded as 0.6; the “luciferase activity normalized … mUCP2” value was 0.61. Further, in the experiment on mLeptin promoter, the “Luc. act., normalized to lacZ” value was 3.1; the “Normalized Luc. act., normalized to control” value was 1.1; the “Results of assays … with mLeptin” value is given as 1.07. In the experiment with mPOMC promoter, the “Results of assays … with mPOMC” value stood at 0.73; the “Luc. act., normalized to lacZ” value is listed as 50.0; the “Normalized Luc. act., normalized to control” value came out at 0.7. For the same molecule, in the experiment with mCAR promoter, the “luciferase activity normalized … mCAR” value amounted to 0.31; the “Luc. act., normalized to lacZ” value is on record as 11.8; the “Normalized Luc. act., normalized to control” value is 0.3.

B4: ERR3: Estrogen Related Receptor γ (NR3B3, ERRg), cDNA driver (protein, UniProt P62508 1-458, looked up)
Estrogen-related receptor …: MDSVELCLPESFSLHYEEELLCRMSNKDRHIDSSCSSFIKTEPSSPASLTDSVNHHSPGGSSDASGSYSSTMNGHQNGLDSPPLYPSAPILGGSGPVRKLYDDCSSTIVEDPQTKCEYMLNSMPKRLCLVCGDIASGYHYGVASCEACKAFFKRTIQGNIEYSCPATNECEITKRRRKSCQACRFMKCLKVGMLKEGVRLDRVRGGRQKYKRRIDAENSPYLNPQLVQPAKKPYNKIVSHLLVAEPEKIYAMPDPTVPDSDIKALTTLCDLADRELVVIIGWAKHIPGFSTLSLADQMSLLQSAWMEILILGVVYRSLSFEDELVYADDYIMDEDQSKLAGLLDLNNAILQLVKKYKSMKLEKEEFVTLKAIALANSDSMHIEDVEAVQKLQDVLHEALQDYEAGQHMEDPRRAGKMLMTLPLLRQTSTKAVQHFYNIKLEGKVPMHKLFLEMLEAKV
On to B4, for which, in the experiment on hIRF7 promoter, the “Normalized Luc. act., normalized to control” value is reported as 2.1; the “Luc. act., normalized to lacZ” value worked out at 55.2; the “hIRF7 promoter reporter activity” value was 2.10. For the same molecule, in the experiment on hCYP3A4 promoter, the “Luc. act., normalized to lacZ” value was 4.5; the “Normalized Luc. act., normalized to control” value is listed as 1.0; the “hCYP3A4 promoter reporter activity” value turned out to be 1.02. Besides, in the experiment with mUCP2 promoter, the “Luc. act., normalized to lacZ” value came out at 193.4; the “Normalized Luc. act., normalized to control” value is 1.8; the “luciferase activity normalized … mUCP2” value is 1.76. In the experiment with mLeptin promoter, the “Luc. act., normalized to lacZ” value is 2.4; the “Normalized Luc. act., normalized to control” value stood at 0.8; the “Results of assays … with mLeptin” value was determined as 0.80. For the same molecule, in the experiment with mPOMC promoter, the “Results of assays … with mPOMC” value is given as 2.02; the “Luc. act., normalized to lacZ” value is reported as 139.4; the “Normalized Luc. act., normalized to control” value came to 2.0. Besides, in the experiment on mCAR promoter, the “luciferase activity normalized … mCAR” value is listed as 2.87; the “Luc. act., normalized to lacZ” value was determined as 109.5; the “Normalized Luc. act., normalized to control” value worked out at 2.9.
